B1: recombinant mouse CXCL4 (ligand)
chain: VTSAGPEESDGDLSCVCVKTISSGIHLKHITSLEVIKAGRHCAVPQLIATLKNGRKICLDRQAPLYKKVIKKILES
B2: recombinant mouse XCL1 (ligand)
chain: VGTEVLEESSCVNLQTQRLPVQKIKTYIIWEGAMRAVIFVTKRGLKICADPEAKWVKAAIKTVDGRASTRKNMAETVPTGAQRSTSTAITLTG
B3: recombinant mouse CXCL1 (ligand)
chain: APIANELRCQCLQTMAGIHLKNIQSLKVLPSGPHCTQTEVIATLKNGREACLDPEAPLVQKIVQKMLKGVPK
B4: recombinant mouse CXCL2 (ligand)
chain: AVVASELRCQCLKTLPRVDFKNIQSLSVTPPGPHCAQTEVIATLKGGQKVCLDPEAPLVQKIIQKILNKGKAN
B5: recombinant mouse CXCL10 (ligand)
chain: IPLARTVRCNCIHIDDGPVRMRAIGKLEIIPASLSCPRVEIIATMKKNDEQRCLNPESKTIKNLMKAFSQKRSKRAP
B6: recombinant mouse CCL19 (ligand)
chain: GANDAEDCCLSVTQRPIPGNIVKAFRYLLNEDGCRVPAVVFTTLRGYQLCAPPDQPWVDRIIRRLKKSSAKNKGNSTRRSPVS
B7: recombinant mouse CCL3 (ligand)
chain: APYGADTPTACCFSYSRKIPRQFIVDYFETSSLCSQPGVIFLTKRNRQICADSKETWVQEYITDLELNA
B8: recombinant mouse CCL22 (ligand)
chain: GPYGANVEDSICCQDYIRHPLPSRLVKEFFWTSKSCRKPGVVLITVKNRDICADPRQVWVKKLLHKLS

What was measured:
Experiment in all cases: SPR; CBP-FLAG immobilised by amine coupling on a CM5 chip (300-400 RU, 10 mM sodium acetate pH 4.5); serial dilutions of mouse chemokine flowed in triplicate for 3 min, 10 min dissociation; 25°C; HBS-EP buffer (20 mM HEPES, 150 mM NaCl, 3.4 mM EDTA, 0.005% Polysorbate 20, pH 7.4); Biacore X100; global fit with a 1:1 binding model
[1] = target: PVNZ112.6-CBP (Parapoxvirus of red deer in New Zealand (PVNZ), strain RD86)
[2] = target: PVNZ112.0-CBP (Parapoxvirus of red deer in New Zealand (PVNZ), strain RD86)
[3] = target: PVNZ112.3-CBP (Parapoxvirus of red deer in New Zealand (PVNZ), strain RD86)

| Molecule | Kd [1] [nM] | koff [1] [s⁻¹] | kon [1] [M⁻¹ s⁻¹] | Kd [2] [nM] | koff [2] [s⁻¹] | kon [2] [M⁻¹ s⁻¹] | Kd [3] [nM] | koff [3] [s⁻¹] | kon [3] [M⁻¹ s⁻¹] |
| --- | --- | --- | --- | --- | --- | --- | --- | --- | --- |
| recombinant mouse CCL2 (from UniProt P10148 24-148) (ligand) | 0.03 | 0.00037 | 1.18e+07 | – | – | – | – | – | – |
| recombinant mouse CCL21 (from UniProt P84444 24-133) (ligand) | 0.52 | 0.0103 | 1.95e+07 | 12.9 | 0.00682 | 530000 | 17.9 | 0.00251 | 140000 |
| B1 | 0.59 | 0.011 | 1.85e+07 | 25.9 | 0.0044 | 170000 | 0.97 | 0.00126 | 1.29e+06 |
| B2 | – | – | – | 30.8 | 0.00203 | 60000 | – | – | – |
| B3 | – | – | – | – | – | – | 0.66 | 0.00169 | 2.54e+06 |
| B4 | – | – | – | – | – | – | 0.48 | 0.00087 | 1.79e+06 |
| B5 | 10.4 | 0.00146 | 140000 | 7.29 | 0.00708 | 970000 | 82.5 | 0.0198 | 240000 |
| B6 | 0.13 | 0.00132 | 1e+07 | – | – | – | 15.8 | 0.00158 | 10000 |
| B7 | 2.51 | 0.0358 | 1.42e+07 | – | – | – | – | – | – |
| B8 | 0.02 | 0.00047 | 2.17e+07 | – | – | – | – | – | – |
